One substance from PMC9576728 can be followed below.

The target in test [1] is POU2F3 (UniProt Q9UKI9). In words: co-immunoprecipitation (IP:HA) and western blot, quantified. Particulars: HEK293T cells, IP:HA lanes, parent: 1. A general note: A western blot detects proteins with antibodies after separation by electrophoresis.
For test [2], the target named is FLAG-POU2F3 (UniProt Q9UKI9). As to the kind of experiment: co-immunoprecipitation (IP:FLAG) and western blot, quantified. Particulars: HEK293T cells, IP:FLAG lanes, parent: 1.

As to “HA-COLCA2 (WT) (from UniProt A8K830) VKELL>DAAPP (V>D; K>A; E>A; L>P; L>P; residue numbers not printed)”, the ratio to parent in test [1] (normalised POU2F3/COLCA2 ratio) worked out at 0.37; in test [1] (raw POU2F3 band (untagged control lane 0.29; HA bait band WT 1, DAAPP 1.44)), 0.53; in test [2] (normalised COLCA2/POU2F3 ratio), 0.52; in test [2] (raw HA band (V5-POU2F3 control lane 0; FLAG bait band WT 1, DAAPP 1.07, V5 control 0.09)), 0.56.
